What was measured:
[1] = biological target: AP205 cVLP displaying SpyCatcher (SpyC-cVLP) (Acinetobacter phage AP205); test: covalent SpyTag/SpyCatcher coupling shown by reduced SDS-PAGE with densitometry; FL PCSK9-SpyT in 100 mM HEPES, 500 mM NaCl, pH 7 mixed 1:1.2 (cVLP subunit per antigen) with SpyC-cVLP, HEPES to 250 mM and L-Arginine to 500 mM, overnight at 4 °C; coupling band on reduced SDS-PAGE; coupling efficiency by densitometry
[2] = biological target: AP205 cVLP displaying SpyTag (SpyT-cVLP) (Acinetobacter phage AP205); test: covalent SpyTag/SpyCatcher coupling shown by reduced SDS-PAGE with densitometry; SpyT-cVLP and SpyC-PCSK9 antigen mixed in a 1:2 molar ratio in PBS, pH 7.4, overnight at 4 °C; coupling band on reduced SDS-PAGE; coupling efficiency = coupled cVLP subunits/(coupled + uncoupled cVLP subunits) by densitometry

Substance	antigen coupling efficiency (percentage of binding sites per cVLP conjugated to an antigen) [1] [%]	antigen coupling efficiency (percentage of binding sites per cVLP conjugated to an antigen) [2] [%]
FL PCSK9-SpyT (muPCSK9(35–694) R221S-SpyT)	40	
SpyC-PCSK9(210–226) (from UniProt Q80W65 210-226)		80
SpyC-PCSK9(156–227) (from UniProt Q80W65 156-227)		60
